The values that follow are results of earlier work, collected in publication PMC3583350.

pKd: −log10 of the molar value.

As usually defined, the pKd is the negative decadic logarithm of the Kd, by convention in mol/L.

The data set deals with FcεRIα ECD (Homo sapiens) (UniProt P12319).
UniProt P12319, sequence (P12319 26-205): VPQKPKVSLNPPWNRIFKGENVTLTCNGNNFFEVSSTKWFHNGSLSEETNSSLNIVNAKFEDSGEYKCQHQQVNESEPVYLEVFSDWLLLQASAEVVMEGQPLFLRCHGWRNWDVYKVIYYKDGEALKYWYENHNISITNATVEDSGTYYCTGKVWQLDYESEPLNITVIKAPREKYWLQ

As to IgE-Fc Fc (from UniProt P01854), the pKd is 9.00.
